The data set concerns MS2 coat protein. Briefly: apparent KD of MS2 coat protein; designed switch direction (-1 OFF switch, 1 ON switch): 1; higher = weaker reporter binding. A digest of the protocol:
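Designed RNA switches were transcribed on Illumina chips by stalled E. coli RNA polymerase and titrated with SNAP-549-labelled MS2 coat protein from 0.7 or 1.5 nM, doubling to 3 µM. Step length ran from 0.8–1.5 h at the lowest concentration to 10–20 min at the highest. The apparent KD is the median over clusters for each design, from curve-fitted normalised cluster fluorescence.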

Setting [1] is: input ligand: microRNA oligo, concentration not stated.
[2] abbreviates: Eterna round: R95, input ligand: FMN 200 uM.
[3] abbreviates: Eterna round: R95, input ligand: microRNA oligo, concentration not stated.
[4] abbreviates: Eterna round: R95, input ligand: none.

For the sequence “UGGUAACAUGAGGAUCACCCAUGUCAAAUGAAUCGAGGAUAUGGGAAUUAACAACACAAACUAGAAGGCGAAUUUG [Altered State 1-8 - Jieux - Same State 1] (Eterna round: R96, puzzle: Same State 1)”, the “apparent KD of MS2 coat protein” value reads like this: (input ligand: FMN 200 uM) 316 nM; under setting [1], 151 nM; (input ligand: none) 314 nM.
Regarding “UGGUAACAUGAGGAUCACCCAUGUCAAAUGAAUCGAGGAUAUGGGAAUUAACAACACAAACUAGAAGGCGAAUUUG [Altered State 1-8 - Jieux - Same State 1] (puzzle: Same State 1)”, the “apparent KD of MS2 coat protein” value reads like this: under setting [2], 293 nM; under setting [3], 488 nM; under setting [4], 180 nM.
In the same order, the values of “UGGUAACAUGAGGAUCACCCAUGUCAAAUGAAUCGAGGAUAUGGGAAUUAACAAUAUAAACUAGAAGGCGAAUUUG [Altered State 1-7 - Jieux - Same State 1] (puzzle: Same State 1)” are 144 nM, 284 nM and 290 nM.
Consider “UGGUACAUGGGAGGAUAUCAUGUAGAAACAUGAGGAUCACCCAUGUAGAUGGCCGGUAACCGGGAUGAGAAGGCCCAUGUACCU [JL SSNG1 3.64] (Eterna round: R96, puzzle: Same State NG 2)”, for which the “apparent KD of MS2 coat protein” value (input ligand: FMN 200 uM) came to 27 nM, the “apparent KD of MS2 coat protein” value under setting [1] was 22.4 nM and the “apparent KD of MS2 coat protein” value (input ligand: none) was found to be 30.3 nM.
Take “UGGUACAUGGGAGGAUAUCCUCAGGAGACAUGAGGAUCACCCAUGUAAUUUAAGCCGAAAGGCAUGGAGAAGGCCCAUGUACCU [JL SSNG1 3.80] (Eterna round: R96, puzzle: Same State NG 2)”: the “apparent KD of MS2 coat protein” value is 19.5 nM (input ligand: FMN 200 uM), 94.1 nM under setting [1] and 129 nM (input ligand: none).
For “UGGUACAUGGGAGGAUAUCUCAUGGAGACAUGAGGAUCACCCAUGUAGAUGGGCGGUAACGCCGGAGAGAAGGCCCAUGUACCU [JL SSNG1 3.70] (Eterna round: R96, puzzle: Same State NG 2)”, in that order: 29.2 nM, 41.6 nM and 58.1 nM.
In the same order, the values of “UGGUACAUGGGAGGAUAUGGGCAAGGGACAUGAGGAUCACCCAUGUAUUAAAAGCCGAAAGGCAUCUAGAAGGCCCAUGUACCU [JL SSNG1 3.87] (Eterna round: R96, puzzle: Same State NG 2)” are 14 nM, 42.7 nM and 50.2 nM.
Turning to “UGGUGUAACAUGAGGAUCACCCAUGUCACAACCCGGAUAGAGUAGGAUAUGGGCUGAUCACGCAUCCAGAAGGGCUCAUACUUU [Eternabot solution 19] (Eterna round: R96, puzzle: Same State NG 3)”, the “apparent KD of MS2 coat protein” value reads like this: (input ligand: FMN 200 uM) 19.7 nM; under setting [1], 14.3 nM; (input ligand: none) 16.8 nM.
For “UGUAAACAUGAGGAUCACCCAUGUAAUAAUAUGGGAGGAUAUGGGAAUUAAUUAAUUAAACCAGAAGGCCUAAUGU [Mat - Same State 1 - D88] (puzzle: Same State 1)”, the “apparent KD of MS2 coat protein” value under setting [2] was 30.9 nM, the “apparent KD of MS2 coat protein” value under setting [3] is 388 nM and the “apparent KD of MS2 coat protein” value under setting [4] stood at 280 nM.
For “UGUAAACAUGAGGAUCACCCAUGUUUUUUCAUGGGAGGAUAUCUGAGUUAAGUAUAUUAAGGAGAAGGCCUUGUGU [× ×•×ª×• ×ž×“×™× ×” × ×—×ª-03] (puzzle: Same State 1)”, in that order: 90.2 nM, 18.7 nM and 24.7 nM.
Regarding “UGUACCUUCACAGGAUAUCAUGCGAAAAUUGCGUGAGAAGGGUGAAUACGGUGUUCAUUGUUGCACAUGAGGAUCACCCAUGUA [SameState NG1 #55] (Eterna round: R96, puzzle: Same State NG 1)”, the “apparent KD of MS2 coat protein” value by setting is: (input ligand: FMN 200 uM) 269 nM; under setting [1], 74.9 nM; (input ligand: none) 259 nM.
For “UGUAUACAUGAGGAUCACCCAUGUCAACGUAGUCGAGGAUAUGGGCAGCCGUGAGGCGUACCAGAAGGCGAAGAGG [JL-ss1-3.05 ViennaUCT mod] (Eterna round: R96, puzzle: Same State 1)”, in that order: 36.5 nM, 104 nM and 151 nM.
For “UGUAUACAUGAGGAUCACCCAUGUCAACGUAGUCGAGGAUAUGGGCAGCCGUGAGGCGUACCAGAAGGCGAAGAGG [JL-ss1-3.05 ViennaUCT mod] (puzzle: Same State 1)”, the “apparent KD of MS2 coat protein” value by setting is: under setting [2], 27.6 nM; under setting [3], 95.3 nM; under setting [4], 172 nM.
For “UGUUAACAUGAGGAUCACCCAUGUCAAAUGAAUCGAGGAUAUGGGAAGUAAUAAGAGAAACUAGAAGGCGAAGUUG [Altered State 1-2 - Jieux - Same State 1] (puzzle: Same State 1)”, in that order: 276 nM, 353 nM and 192 nM.
In the case of “UGUUAGUAGUGAGGAUAUACAUACACCUUACAUGAGGAUCACCCAUGUUUUAAUAUUGAUAGUUAGUAGAAGGCACAUGAUUAU [JR_SSNG2_Sub043] (Eterna round: R96, puzzle: Same State NG 2)”, the “apparent KD of MS2 coat protein” value (input ligand: FMN 200 uM) was determined as 22.1 nM, the “apparent KD of MS2 coat protein” value under setting [1] worked out at 35.8 nM and the “apparent KD of MS2 coat protein” value (input ligand: none) worked out at 45.7 nM.
For “UGUUAUUUGACAGGAUAUUGAUUGUAAAGUUUUUACAUGAGGAUCACCCAUGUUGUUCAUUCGAACAAGAAGGGUCAAGUUUUU [JR_SSNG2_Sub019] (Eterna round: R96, puzzle: Same State NG 2)”, the “apparent KD of MS2 coat protein” value stood at 1070 nM (input ligand: FMN 200 uM), 48.2 nM under setting [1] and 172 nM (input ligand: none).
Take “UGUUAUUUGACAGGAUAUUGAUUGUUAAGUUUUUACAUGAGGAUCACCCAUGUUGUUCAUUCGUACAAGAAGGGUCAAGUUUUU [JR_SSNG2_Sub020] (Eterna round: R96, puzzle: Same State NG 2)”: the “apparent KD of MS2 coat protein” value under setting [1] was found to be 52.6 nM.
Still for that read-out and setting: then “UGUUGUAUUACAGGAUAUCUAAUAUUUUUAUUUAGAGAAGGGUAUUCACAUGAGGAUCACCCAUGUAUAUACGAGGAAGUUGUG [JMF's solution 8] (Eterna round: R96, puzzle: Same State NG 1)”, with 24.6 nM; and “UGUUGUAUUACAGGAUAUCUAGUAUUUUUAUUUAGAGAAGGGUAUUCACAUGAGGAUCACCCAUGUAUAUACGAGGAAGUUGUG [JMF's solution 9] (Eterna round: R96, puzzle: Same State NG 1)”, with 28 nM.
The same measure, in the same setting: next, “UGUUGUAUUACAGGAUAUCUAGUGUUUUUAUUUAGAGAAGGGUAUUCACAUGAGGAUCACCCAUGUAUAUACGAGGAAGUUGUG [JMF's solution 34] (Eterna round: R96, puzzle: Same State NG 1)”: 43 nM.
As to “UGUUGUAUUACAGGAUAUCUAUUGUAUUUAUUUAGAGAAGGGUAUUCACAUGAGGAUCACCCAUGUAUAUACGAGGAAGUUGUG [JMF's solution 73] (Eterna round: R96, puzzle: Same State NG 1)”, the “apparent KD of MS2 coat protein” value under setting [1] came out at 46.7 nM.
In the case of “UUAAAGAAGUAAGGAUAUACAUGAGGAUCACUCGUAGAAGGUACUAAACAUGAGGAUCACCCAUGUACCGGUCCGUAGACUGGA [Mat - Same State NG 1 - JL mod - D2] (Eterna round: R96, puzzle: Same State NG 1)”, the “apparent KD of MS2 coat protein” value was 960 nM (input ligand: FMN 200 uM), 248 nM under setting [1] and 483 nM (input ligand: none).
Turning to “UUAACAUGAGGAUCACCCAUGUAUAGGGAGUUUGCAAUUUGACAGGAUAUUGAAGAUUUAUAUAGCAAGAAGGGUCGUUAGUCU [JR_SSNG3_Sub005] (Eterna round: R96, puzzle: Same State NG 3)”, the “apparent KD of MS2 coat protein” value is 38 nM (input ligand: FMN 200 uM), 44.9 nM under setting [1] and 53.6 nM (input ligand: none).
On to “UUAAUGAUGUAAGGAUAUACAUGAGGAUUUCUCGUAGAAGGUACAAGACAUGAGGAUCACCCAUGUGUCGCUCAAUAGAGCGUA [Mat - Same State NG 1 - JL mod - D19] (Eterna round: R96, puzzle: Same State NG 1)”, for which the “apparent KD of MS2 coat protein” value (input ligand: FMN 200 uM) amounted to 268 nM, the “apparent KD of MS2 coat protein” value under setting [1] was 138 nM and the “apparent KD of MS2 coat protein” value (input ligand: none) worked out at 292 nM.
For “UUAAUUUACUGAGGAUAUCGUGUCGACUGAGUUGACAUGAGGAUCACCCAUGUGAGAAGUGGUAUCGAGAAGGCAGUAUUCAUA [JR_SSNG2_Sub023] (Eterna round: R96, puzzle: Same State NG 2)”, in that order: 16.1 nM, 28.9 nM and 42 nM.
Regarding “UUAGAAUUGCAAGGAUAUCUAAUUUAGAUAGUAAGAGAAGGUGCUUUAUAGUUACAUGAGGAUCACCCAUGUUUUUUUGUUUAU [JR_SSNG1_Sub059] (Eterna round: R96, puzzle: Same State NG 1)”, the “apparent KD of MS2 coat protein” value under setting [1] is 26.5 nM.
With “UUAUCAUUGCAAGGAUAUUGAUUACAUGAGGAUCACCCAUGUUAAUGAACACUAUGUACUACUAACAAGAAGGUGCUAUAAAUU [JR_SSNG2_Sub041] (Eterna round: R96, puzzle: Same State NG 2)”, the “apparent KD of MS2 coat protein” value by setting is: (input ligand: FMN 200 uM) 35.1 nM; under setting [1], 28 nM; (input ligand: none) 34.3 nM.
Take “UUAUUAUUUACAUGAGGAUCACCCAUGUUUUUAUGUCAGAGAUAGGAUAUAGAAGUCUCGUUUUACUAGAAGGAUCUUUUUAUU [JR_SSNG3_Sub083] (Eterna round: R96, puzzle: Same State NG 3)”: the “apparent KD of MS2 coat protein” value runs as follows: (input ligand: FMN 200 uM) 21.2 nM; under setting [1], 16.7 nM; (input ligand: none) 22.8 nM.

The record behind these values is the supplement of paper PMC9170038.
